Data from the PETadex activity labels (doi:10.1016/j.eti.2025.104587).

Key:
PET = assay: Proxy for plastic degradation [Weight/mass loss]; details: pH 7.5; 0 h
pNPB = assay: Proxy for plastic degradation [p-nitrophenol (pNP) release] (% relative activity)

B1: unnamed (protein)
chain: MKSVLARARLVAAATAMLAFAAWALVSAAPAVEAQSNPYQRGPNPTRSALTADGPFSVSTYSVSGLSVSGFGGGVIYYPTGTTLTFGGIAMSPGYTASSSSLAWLGRRLASHGFVVLVIDTITRLDFPDSRASQLSAALNYLRTSSPSTVRARLDGTRLAVAGHSMGGGGTLRVSEQLPSLKAGVPLTPWHTDKTFNTSVPQLIVGAENDSVAPVSQHAIPFYQNLPSTTPKVYVELNNASHFAPNTSNATISVYTISWMKLWVDNDTRYRPFLCNVSDASLSDFRSNNRHCQ
- Proxy for plastic degradation (PET): 0%
- Proxy for plastic degradation (pNPB; pH 4): 0
- Proxy for plastic degradation (pNPB; pH 5): 34.5
- Proxy for plastic degradation (pNPB; pH 6.5): 75
- Proxy for plastic degradation (pNPB; pH 7): 86.5
- Proxy for plastic degradation (pNPB; pH 7.5): 99.5
- Proxy for plastic degradation (pNPB; pH 7.5, 30 °C): 39.5
- Proxy for plastic degradation (pNPB; pH 7.5, 40 °C): 41
- Proxy for plastic degradation (pNPB; pH 7.5, 50 °C): 48
- Proxy for plastic degradation (pNPB; pH 7.5, 60 °C): 72
- Proxy for plastic degradation (pNPB; pH 7.5, 70 °C): 99
- Proxy for plastic degradation (pNPB; pH 7.5, 80 °C): 69.5
- Proxy for plastic degradation (pNPB; pH 9): 60.5
- Proxy for plastic degradation (pNPB; pH 10): 45.5
